Legend:
[1] = test system: C3 fibroblasts; assay: Cell locomotion assay, timelapse image analysis of C3 fibroblasts; assay type: cell-based, murine; details: 70% confluent C3, 2 h
Procedure: For motility experiments, 10^5 cells were subcultured into 25 cm^2 tissue culture flasks (Corning), and maintained for 12 h as above. The medium was then aspirated, cells were rinsed with Hanks Balanced Salt Solution (HBSS) (Gibco) and fresh, serum-free α-MEM containing 4.0 μg/ml transferrin (Gibco) and 2.0 μg/ml insulin (Sigma) (defined medium) was added to the flasks.
Cell locomotion was recorded using a computerized timelapse analysis system (Image 1, Universal Imaging Corporation, Westchester, Pa.) that measures nuclear displacement. During the filming period, cells were maintained at 37° C. in defined-media at physiological pH.
A 10 amino acid peptide corresponding to one of the HA binding domains of RHAMM, peptide^aa423-432 (Yang et al., 1993), was synthesised and added at various concentrations (0,0.1, 1.0, 5.0, 10.0 and 50.0 ng/ml) to 70% confluent C3 fibroblasts. Cell locomotion was monitored by image analysis for 2 h from the addition of the peptide. A scrambled peptide was used as control.
RHAMM-GST fusion protein prepared and purified as described in (b) above was added at concentrations of 1 pg/ml, 1 ng/ml, 1 μg/ml and 1 mg/ml to 70% confluent C3 cultures and cell locomotion was monitored by image analysis for 2 h from protein addition as described in Example 5.
For each experiment, 30 cells were tracked every 10 min for a 1 hr period.
RHAMM-GST fusion protein, as described in (d) above, and deleted/mutated RHAMM-GST fusion protein, as described in (h) above were added at 5 ng/ml to subconfluent cultures of C3 cells and cell locomotion was monitored by image analysis for 2 h from protein addition as described in Example 5.

[2] = test system: smooth muscle cells; assay: Smooth muscle cell migration after wounding of monolayers; assay type: cell-based, bovine; details: peptides 2 μg/ml
Procedure: Smooth muscle cells were isolated from bovine aorta as described previously from rat aorta (Majack et al., 1984) and were maintained in Dulbecco's Modified Eagles medium (DME) supplemented with 10% fetal calf serum (FCS) and 20 mM HEPES buffer, pH 7.2 at 37° C. and 5% CO2 in air. All experiments were performed using defined medium [DME with 20 mM HEPES buffer, pH 7.2, 0.5 U/ml insulin (beef and pork zinc suspension, Novo Laboratories Ltd., Willowdale, Ontario) and 4 μg/ml transferrin (Sigma Chemical Co., St. Louis, Mo.)], and the culture medium was replaced 24 hours before filming. Wounding injury to confluent monolayers consisted of removal of half the monolayer using a cell lifter followed by the addition of fresh defined medium in the presence of either RHAMM peptide aa401-411 or the scrambled peptide of the same domain as described above.
The HA-binding region of RHAMM consists of two 10 amino acid domains located close to the carboxy terminus of the protein (Yang, 1993). A peptide mimicking Domain 1 (amino acids 401-411)—YKQKIKHVVKLK—and a scrambled peptide consisting of the same amino acids arranged in a random manner—YLKQKKVKKHIV—were synthesized. Both peptides were used at a final concentration of 2 μg/ml in locomotion assays.
Injured cell monolayers were monitored for motility using an IM 35 Zeiss inverted microscope to which a video camera (Hamamatsu CCD, Inc., Japan) was attached. The cells were maintained at 37° C. using a heated platform (TRZ 3700, Zeiss, Germany). Cell locomotion was followed by using image analysis (Image 1, Universal Imaging Corp., Westchester, Pa. This program allows quantification of nuclear displacement from a sequence of digitalized images. The motility of thirty cells in each experiment was followed for a period of 24 hours with mean velocities calculated every hour.

[3] = test system: C3 fibroblasts; assay: Focal adhesion formation (vinculin immunofluorescence) and cell spreading of C3 fibroblasts; assay type: cell-based, murine; details: for cells with focal adhesion staining (vinculin plaque-positive cells): 100 ng/mL
Procedure: The ras-transformed 10T½ cells termed C3 (Egan et al., 1987) were grown on fibronectin coated glass coverslips for 24 hrs. The cells were then exposed to RHAMM I-2a (1 ng/ml to 1 mg/ml) for 2 hrs at 37° C. before fixing with 3% paraformaldehyde/phosphate buffered saline (PBS). Cells were then washed three times with 10% fetal calf serum PBs, permeabilized with 0.2% triton X-100/PBS for 3 min, and washed again. The coverslips were then incubated with anti-vinculin (Sigma, 1:75 dilution) or an identical concentration of nonspecific mouse IgG for 1 hr at 37° C. After washing, the coverslips were incubated with rhodamine labelled goat anti-mouse antibody (1:200, Sigma) for 2 hrs at room temperature. After further washings, the coverslips were mounted on glass slides and viewed on a Zeiss Axiovert 35 M fluorescent microscope.

peptide^aa423-432: 10 amino acid peptide corresponding to one of the HA binding domains of RHAMM (KEVELEKHIA; UniProt Q00547 423-432, looked up, fragment)
concentration at which cell locomotion was significantly inhibited [1]: ≥ 5 ng/mL

YLKQKKVKKHIV [scrambled peptide, same amino acids as peptide aa401-411 arranged in a random manner, reference compound]
effect on rate of translocation of smooth muscle cells after wounding [2]: no effect on the wounding response

B1: RHAMM I-2a-GST fusion protein: GST fusion protein of the secreted RHAMM isoform I-2a (with alternatively spliced exon 2A) (protein)
chain: MRALSLELMKLRNKRETKMRSMMVKQEGMELKLQATQKDLTESKGKIVQLEGKLVSIEKEKIDEKCETEKLLEYIQEISCASDQVEKCKVDIAQLEEDLKEKDREILSLKQSLEENITFSKQIEDLTVKCQLLETERDNLVSKDRERAETLSAEMQILTERLALERQEYEKLQQKELQSQSLLQQEKELSARLQQQLCSFQEEMTSEKNVFKEELKLALAELDAVQQKEEQSERLVKQLEEERKSTAEQLTRLDNLLREKEVELEKHIAAHAQAILIAQEKYNDTAQSLRDVTAQLESVQEKYNDTAQSLRDVTAQLESEQEKYNDTAQSLRDVTAQLESEQEKYNDTAQSLRDVTAQLESVQEKYNDTAQSLRDVTAQLESYKSSTLKEIEDLKLENLTLQEKVAMAEKSVEDVQQQILTAESTNQEYARMVQDLQNRSTLKEEEIKEITSSFLEKITDLKNQLRQQDEDFRKQLEEKGKRTAEKENVMTELTMEINKWRLLYDELYEKTKPFQQQLDAFEAEKQALLNEHGATQEQLNKIRDSYAQLLGHQNLKQKIKHVVKLKDENSQLKSEVSKLRSQLVKRKQNELRLQGELDKALGIRHFDPSKAFCHASKENFTPLKEGNPNCC
cells being vinculin plaque positive ([3]; 1 ng/mL, 2 hrs): 75%
cells with focal adhesion staining (vinculin plaque-positive cells) ([3]; 2 hrs): < 50%
cells with focal adhesion staining (vinculin plaque-positive cells) ([3]; 2 hrs, listed as RHAMM I-2a): > 50%
vinculin plaque-positive cells ([3]; 1 mg/mL, 2 hrs): > 50%
effect on cell morphology ([3]; various concentrations for 2 hours, data not shown): stimulate cell spreading

Reference: US6429291B1, “Hyaluronan receptor protein” (priority 1994, dated 2002)
